Experimental data: PMC10679507

Legend:
Assay in all cases: UV-vis
Conditions in all cases: room temperature; 0.4 M NaCl; 6-mix buffer (citric acid 5.48 mM; ADA 1.84 mM; MOPS 4.16 mM; TAPS 5.00 mM; CHES 3.24 mM; CAPS 5.56 mM); dark (unphotolyzed) state, lipid-reconstituted
Asp115 = Asp115 (UniProt position 115, LNWLIDVPMLL)
Asp250 = Asp250 (UniProt position 250, TYTIADVSSKV)
Glu10 = Glu10 (UniProt position 10, GNATFENYIGL)

Substance	pKa (Asp115)	pKa (Asp250)	pKa (Glu10)
Sodium pump rhodopsin IaNaR (Indibacter alkaliphilus)	5.5	3.2	4.1
Sodium pump rhodopsin IaNaR D115N (Indibacter alkaliphilus; D115N)	–	2.5	4.6
Sodium pump rhodopsin IaNaR D250N (Indibacter alkaliphilus; D250N)	5.0	–	2.8
Sodium pump rhodopsin IaNaR E10Q/E159Q/R242Q (Indibacter alkaliphilus; E10Q;E159Q;R242Q)	7.1	3.6	–
Sodium pump rhodopsin IaNaR E10Q/R242Q (Indibacter alkaliphilus; E10Q;R242Q)	5.7	3.8	–
Sodium pump rhodopsin IaNaR E159A (Indibacter alkaliphilus; E159A)	5.6	3.3	–
Sodium pump rhodopsin IaNaR E159Q (Indibacter alkaliphilus; E159Q)	–	3.1	3.7
Sodium pump rhodopsin IaNaR H225A (Indibacter alkaliphilus; H225A)	5.8	3.0	4.3
Sodium pump rhodopsin IaNaR R242Q (Indibacter alkaliphilus; R242Q)	6.4	–	4.4
